Data reported in patent US20110293558A1, “MATERIAL PROPERTIES OF T CELLS AND RELATED METHODS AND COMPOSITIONS” (Massachusetts Institute of Technology, priority 2010, published 2011).
Entries after “also recorded” stand apart in the source; their conditions may differ.

How the values were obtained:
[1] = test system: Acute promyelocytic leukemia cells; settings: differentiation down the neutrophil lineage for three days; cited from earlier work
[2] = test system: naïve WT T cells; experiment: In vitro Transwell cell migration toward CCL19; assay type: cell-based, mouse; settings: after CCL19 exposure
Protocol: (§1) Cells from the peripheral lymph nodes and the spleen of Balb/c mice and WAS−/− mice on Balb/c background were pooled and enriched using the EasySep Mouse CD8+ T Cell Enrichment Kit from STEMCELL Technologies (British Columbia, Canada). Enrichment was confirmed using fluorescence-activated cell sorting (FACS) by staining the cells with FITC/anti-Thy1.2 and PE/anti-CD8α antibodies (Abs). The memory T cell population was assessed by evaluating the expression of CD44 and CD62L via FACS. T cells in an activation medium with 100 units/mL IL-2 and 1% anti-CD28 Ab were activated by plate-bound anti-CD3 Abs for 4 day at 37° C. The activation medium included RPMI with 10% FBS, 10 mM HEPES (1M), 1% NEAA, 1% sodium pyruvate (100 mM), 50 μM β-mercaptoethanol, 4 mM L-glutamine, and 100 μg/mL Pen/Strep. Cell activation was verified via FACS measurement of CD25. Enriched WT and WAS−/− T cells in DMEM with 1% BSA and 0.1% Pen/Strep were induced to migrate through polycarbonate Transwell inserts (Costar, Cambridge, Mass.) with 5-μm pores in a 24-well plate toward a CCL19 chemokine source (R&D Systems, Minneapolis, Minn.). Inserts contained 5×10^5 cells in 100 μL of medium, and wells contained 1 mL of medium with either no CCL19 or 100 ng/mL of CCL19. Cells were allowed to migrate for ˜7 hours at 37° C., and those that crossed the membrane were collected and used for MPA studies.

[3] = test system: naïve WAS−/− T cells; experiment: In vitro Transwell cell migration toward CCL19; assay type: cell-based, mouse
Protocol: as §1

[4] = test system: WT T cells; experiment: Micropipette aspiration of chemokine-stimulated T cells; assay type: cell-based, mouse
Protocol: (§2) Micropipettes made using a micropipette puller were trimmed to 2.5-3 or 4.5-5 μm inner diameter for testing naïve and activated T cells. MPA glass chambers consisted of a 24 mm×60 mm microscope coverslip bottom, a U-shaped parafilm spacer, and a 22 mm×22 mm microscope coverslip top. The assembly was baked for two hours at 80° C. to ensure good adhesion between the components.
(§3) Enriched WT and WAS−/− T cells in DMEM with 1% BSA and 0.1% Pen/Strep were induced to migrate through polycarbonate Transwell inserts (Costar, Cambridge, Mass.) with 5-μm pores in a 24-well plate toward a CCL19 chemokine source (R&D Systems, Minneapolis, Minn.). Inserts contained 5×10^5 cells in 100 μL of medium, and wells contained 1 mL of medium with either no CCL19 or 100 ng/mL of CCL19. Cells were allowed to migrate for ˜7 hours at 37° C., and those that crossed the membrane were collected and used for MPA studies.
(§4) 3×10^5 cells in 100 μL RPMI with 10% FBS and 1% HEPES was stained with 10 μL trypan blue. The mixture was added to 600 μL of either the RPMI medium or the T cell activation medium with IL-2 for naïve and activated T cell testing. Migratory T cells were tested in the medium used for migration. The MPA device was based on the design of Hochmuth et al (18). The aspiration rate and volume were 36 mL/hr and 2 mL, corresponding to a total pressure of ˜400 Pa. The cell movement in the micropipette was recorded with a CCD camera. Aspirations were performed at approximately room temperature.
(§5) MPA data were fitting using the half-space model (77) described by the expressions:
(§6) where E is the cell modulus, L is the length from the micropipette opening to the cell leading edge, Δp is the pressure differential at a particular L, ri and ro are the inner and outer […] of the micropipette, and φ is the wall function that is approximately […]. The ImageJ software was used to manually track the change in L. By plotting Δp against ri/L and finding the best linear fit (minimal total error) a modulus could be derived from the slope of the line. […]

[5] = test system: WAS−/− T cells; experiment: as above; assay type: cell-based, mouse; settings: naïve WAS−/− T cells
Protocol: as §2, §3, §4, §5, §6

Q: With `CC1=C(/C=C/C(C)=C/C=C/C(C)=C/C(=O)O)C(C)(C)CCC1` [all-trans retinoic acid] as the molecule, how does the “compliance of differentiated cells relative to control (more compliant)” value [1] read?
A: 45%

B1: CCL19: chemokine CCL19 (R&D Systems) used as chemoattractant for T cells (protein, UniProt Q99731 22-98, looked up)
C-C motif chemokine 19: GTNDAEDCCLSVTQKPIPGYIVRNFHYLLIKDGCRVPAVVFTTLRGRQLCAPPDQPWVERIIQRLQRTSAKMKRRSS
Q: What does the source list for B1?
A: migrating cells stained CD62L high and CD44 low (naïve phenotype), FACS [2]: ~90%; cells with naïve phenotype (CD62L and CD44 co-staining), FACS ([3]; all three groups (untreated, remained in insert, migrated)): ~90%; cells migrated ([3]; seven hours exposure to CCL19, 100 ng/mL, 5-μm pore inserts): ~6.4%; stiffness compared to activated cells ([4]; migratory WT cells after CCL19): about 1.4 times; change in modulus before and after the chemokine treatment (Student's t test) ([4]; naïve WT T cells): significantly different; change in modulus before and after the chemokine treatment (Student's t test) [5]: did not pass the 95% significance level; also recorded: insignificant decrease
